The source of these data is patent US20040229301A1 (published 2004).

Values joined by “and” are separate entries in the source; they are usually repeats but may differ in a detail not shown here. Equal entries are not always repeated.

The target in experiment [1] is full-length human tissue factor with C-terminal RGS-His6 tag, stably expressed on CHO-K1 cells (human, UniProt P13726 33-295). Nature of the experiment: cell-based or functional assay.
In experiment [2] the target is T1, soluble human tissue factor (extracellular domain of hTF with C-terminal RGS-His6 tag) (human, UniProt P13726 33-251).
T1 construct: leader left out (range computed from the stated lengths); Expressed in HEK293, purified on Ni-agarose and by gel filtration; also called soluble hTF; recombinant soluble hTF
In words: BIAcore X, soluble hTF immobilized on CM5 chip, mAb injected. The protocol: Binding properties of anti-hTF mAbs were evaluated using BIAcore X. Briefly, a CM5 BIAcore biosensor chip was docked into the instrument and activated with 55 μl of 1:1 NHS/EDC at room temperature. The recombinant soluble hTF and BSA (10 μg/ml in 0.05 M acetate buffer, pH 4.5) were immobilized on the activated chips in flow cells 1 and 2, respectively. The immobilization was carried out at a flow rate of 5 μl/min until a resonance response of 1000-2000 RU was achieved. The chip was then blocked by injection of 55 μl of ethanolamine-HCl, pH 8.5 followed by 5 washes with 50 mM NaOH, 1 M NaCl. To measure the binding of anti-hTF mAbs to the soluble hTF immobilized to the chip, 30 μl of anti-hTF mAbs at varying concentrations in BIAcore running buffer (HBS-EP, Biacore AB, Uppsala, Sweden, Cat. #1001-08) were injected over the sensor surface at a flow rate of 5 μl/min. Following completion of the injection phase, dissociation was monitored in BIAcore running buffer at the same flow rate for 360 seconds. The surface was regenerated between injections using 30 μl of 50 mM NaOH-1 M NaCl. Individual sensorgrams were analyzed using BIAsimulation software.

For experiment [3], the target named is T2, human tissue factor, endogenous, on tumor cell lines (H596; TF-positive SW900) (human, UniProt P13726 33-295).
T2 construct: whole, on cells; also called hTF
In words: FACS on H596 cells.

B1: monoclonal anti-TF antibody TF9 (hybridoma cell line TF9, ATCC PTA-5674) (antibody, V domains shown)
VH: DVKLQESGPDLVKPSQSLSLTCTVTGYSITSGYSWHWIRQFPGNKLEWMGYIHYSGSTKYNPSLKSRISITRDTSKNQFFLQLNSVTTEDTATYYCARLWSWYFDVWGAGTTVTVSS
VL: NIMMTQSPSSLAVSAGEKVTMSCKSSQSVLYSSNQKNYLAWYQQKPGQSPKLLIYWASTRESGVPDRFTGSGSGTDFTLTISSVQAEDLAVYYCHQYLSSYTFGGGTKLEIK
Turning to B1, the “Coagulation (seconds), Ab 10 ug/ml” value in experiment [1] turned out to be 195 s. In experiment [2], binding was characterised by a dissociation constant (Kd) of 1.84 nM and the off-rate constant (koff) came to 0.000364 s⁻¹.

B2: monoclonal anti-TF antibody TF278 (hybridoma cell line TF278, ATCC PTA-5676) (antibody, IgG1, V domains shown)
VH: EVQLQQSGAELMKPGASVKISCKATGYTFSSYWIEWVKQRPGHGLEWIGEILPGSASTKYNEKFKGKATFTADTSSNTAYMQLSSLTSEDSAVYYCARDYYYGSSYGFAYWGQGTLVTVSS
VL: QAVVTQESALTTSPGETVTLTCRSSTGAVTTSNYANWVQEKPDHLFTGLIGGTNNRGPGVPARFSGSLIGDKAALTITGAQTEDEAVYFCALWYSNHWVFGGGTKLTVLG
On to B2, for which, in experiment [3], the EC50 was 0.48 nM and 1.14 nM. For the same molecule, in experiment [1], the “Coagulation (seconds), Ab 10 ug/ml” value is 190 s. Also, in experiment [2], the dissociation constant (Kd) was determined as 0.789 nM and the koff stood at 0.000138 s⁻¹.

B3: monoclonal anti-TF antibody TF392 (hybridoma cell line TF392, ATCC PTA-5677) (antibody, IgG1, V domains shown)
VH: QVQLKESGAELMKPGASVKISCKATGYTFSSYWIEWVKQRPGHGLEWIGEILPGSGSTNYNEKFKGKATFTADTSSNTAYMQLSSLTSEDSAVYYCARDRNGYVNYFDSWGQGTTLTVSS
VL: QAVVTQESALTTSPGETVTLTCRSSTGAVTTSNYANWVQEKPDHLFTGLIGGTNNRAPGVPARFSGSLIGDKAALTITGAQTEDEAIYFCALWYSNHWVFGGGTKLTVLG
In experiment [3], B3 gave a Bmax of 58 and an EC50 of 6.29 nM. Also, in experiment [1], the “Coagulation (seconds), Ab 10 ug/ml” value was 210 s. In experiment [2], this molecule displayed a Kd of 2.46 nM and a koff of 0.00013 s⁻¹.

B4: monoclonal anti-TF antibody TF260 (hybridoma cell line TF260, ATCC PTA-5197) (antibody, V domains shown)
VH: QVQLKQSGAELMKPGASVKISCKATGYTFSSYWIEWVKQRPGHGLEWIGEILPGSGSTNYNEKFKGKATFTADTSSNTAYMQLSSLTSEDSAVYYCAREDRYDGDYWGQGTTLTVS
VL: QAVVTQESALTTSPGETVTLTCRSSTGAVTTSNYANWVQEKPDHLFTGLIGGTNNRAPGVPARFSGSLIGDKAALTITGAQTEDEAIYFCALWYSNHWVFGGGTKLTVLG
In experiment [2], B4 gave a Kd of 19.3 nM, an off-rate constant (koff) of 0.000191 s⁻¹ and a kon of 9910 M⁻¹ s⁻¹.

B5: monoclonal anti-TF antibody TF196 (hybridoma cell line TF196, ATCC PTA-5196) (antibody, V domains shown)
VH: QVQLKQSGPELEKPGASVKISCKASGYSFTGYNMNWVKQSNGKSLEWIGNIDPYYGGTSYNQKFKGKATLTVDKSSNTAYMHLKSLTSEDSAVYYCARDSSSWFAYWGQGTLVTVSA
VL: DIQLTQSPASLSASVGETVTITCRASGNIHNYLAWYQQKQGKSPQLLVYNAKTLADGVPSRFSGSGSGTQYSLKINSLQPEDFGSYYCQHFWITPWTFGGGTKLEI
notes: Mouse hybridoma IgG
With B5, in experiment [2], the dissociation constant (Kd) amounted to 66.3 nM, the koff was 0.00279 s⁻¹ and the kon is 42100 M⁻¹ s⁻¹.

B6: monoclonal anti-TF antibody TF277 (hybridoma cell line TF277, ATCC PTA-5675) (antibody, IgG1, V domains shown)
VH: QVQLQQPGAELVKPGASVKLSCKTSGYTFTSYWMHWVKQRPGQGLEWIGEIDPSDSYTNYNQKFKGKATLTVDKSSSTAYMQLSSLTSEDSAVYYCTYYVNYYAMDYWGQGTSVTVSS
VL: QIVLTQSPAIMSASLGEEITLTCSASSSVSYMHWYQQKSGTSPKLLIYSTSNLASGVPSRFSGSGSGTFYSLTISSVEAEDAADYYCHQWSSYPYTFGGGTKLEIK
On to B6, for which the half-maximal effective concentration (EC50) in experiment [3] is 0.48 nM and 0.71 nM. Besides, in experiment [1], the “Coagulation (seconds), Ab 10 ug/ml” value worked out at 202 s. In experiment [2], this molecule showed a Kd of 7.14 nM and a koff of 0.00312 s⁻¹.
